Measurements published in patent CN110760003A.

Target: 人HER3胞外区蛋白 (human HER3 extracellular region protein) (human) (UniProt P21860)
Test: ELISA; human HER3 extracellular region coated at 2 μg/mL, scFv at 2 μg/mL, detected with HRP anti-6×His Tag antibody, TMB, triplicate wells (mean ± deviation)

B1: 抗HER3单链抗体 (anti-HER3-scFv) (scFv)
scFv: QVQLVESGGGLVQPGGSLRLSCAASGFTFSSYAMSWVRQAPGKGLEWVSAINSQGKSTYYADSVKGRFTISRDNSKNTLYLQMNSLRAEDTAVYYCARWGDEGFDIWGQGTLVTVSSGGGGSGGGGSGGGGSDIQMTQSPSSLSASVGDRVTITCRASQGISNWLAWYQQKPGKAPKLLIYGASSLQSGVPSRFSGSGSGTDFTLTISSLQPEDFAVYYCQQYSSFPTTFGQGTKVEIK
B1 showed a 吸光度(A450)均值 of 0.961 A450.
